The Kd is the constant that tells how readily two partners part at equilibrium. Lower therefore signals a tighter complex. The koff is the rate constant with which the complex falls apart. Low values mean slow dissociation, high ones fast dissociation. As a reminder, the kon is the rate constant with which the complex forms. Read a low kon as slow association.

Where only a bound is given, the exact number is not on record here.

The text below walks through data of patent US20070196376A1 (AstraZeneca / MedImmune, published 2007).

The target in experiment [1] is T1, human insulin-like growth factor-II (IGF-II) (human, UniProt P01344 25-91). Description: cell-based or functional assay.
The target of experiment [2] is T2, human insulin-like growth factor-I (IGF-I) (human, UniProt P05019 49-118). Description: cell-based or functional assay.
Experiment [3] concerns the target T2, human insulin-like growth factor-I …. In words: Biacore low-resolution analysis, IGF-I.
Experiment [4] shares this target. In words: Biacore low-resolution screen, mAb captured, IGF-I injected. Background: In SPR one partner is held on a chip, and binding of the other changes the refractive index at the surface.
The target of experiment [5] is T1, human insulin-like growth factor-II …. Description: cell-based or functional assay. The source holds these as a separate data set.
Experiment [6] deals with T2, human insulin-like growth factor-I …. In words: cell-based or functional assay. This is another data set of the same source.
Experiment [7] shares this target. Description: Biacore high-resolution, mAb captured, IGF-I injected over a range of concentrations.
The target in experiment [8] is T1, human insulin-like growth factor-II …. Description: Biacore high-resolution, mAb captured, IGF-II injected over a range of concentrations.
For the next experiment, the target named is mouse IGF-I (mouse, UniProt P05017 49-118). Description: cell-based or functional assay.
Another experiment addresses mouse IGF-II (mouse, UniProt P09535 25-91). In words: cell-based or functional assay.
The target of experiment [9] is T1, human insulin-like growth factor-II …. Description: cell-based or functional assay. The source holds these as a separate data set.
For experiment [10] the target is unchanged. In words: Biacore low-resolution screen, mAb captured, IGF-II injected.
For experiment [11] the target is unchanged. Description: Biacore low-resolution analysis, IGF-II.
Experiment [12] shares this target. In words: cell-based or functional assay. This is another data set of the same source.
Experiment [13] has as its target T2, human insulin-like growth factor-I …. In words: cell-based or functional assay. This is another data set of the same source.
The target in a further experiment is T3, IGF-I/IGFBP-3 complex (UniProt P05019 49-118).
T3 construct: Preformed non-covalent complex; IGF-I 99.97% complexed by IGFBP-3; also called complexed IGF-I/IGFBP-3
Description: Biacore, mAb immobilised, preformed complex injected.

The target of the next experiment is T4, IGF-II/IGFBP-3 complex (UniProt P01344 25-91).
T4 construct: Preformed non-covalent complex; IGF-II 99.97% complexed by IGFBP-3; also called complexed IGF-II/IGFBP-3
The description is as above.

In experiment [14] the target is T5, Recombinant human IGF-I (insulin-like growth factor-I) (human, UniProt P05019 49-118).
T5 construct: Bought; also called IGF1; IGF-1
Description: limited antigen ELISA, supernatant 1:25. On the technique in general: In an ELISA, binding on a coated surface is turned into a signal by an enzyme label.

The target of experiment [15] is T6, Recombinant human IGF-II (insulin-like growth factor-II) (human, UniProt P01344 25-91).
T6 construct: Bought; also called IGF2; IGF-2
In words: limited antigen ELISA, supernatant 1:25.

Another experiment concerns the target T7, human insulin (human, UniProt P01308 25-54; P01308 90-110, limits assumed).
T7 construct: The mature hormone has an A and a B chain cut from the precursor; also called recombinant insulin; hu-Insulin
Description: Biacore, mAb on CM5 chip, insulin injected.

B1: mAb 7.251.3 (antibody, V domains shown)
VH: QVQLQESGPGLVKPSETLSLTCTVSGGSISSYYWSWIRQPPGKGLEWIGYFFYSGYTNYNPSLKSRVTISVDTSKNQFSLKLSSVTAADTAVYYCACITGTTKGGMDVWGQGTTVTVSS
VL: QSVLTQPPSVSGAPGQRVTISCTGSSSNIGAGYDVHWYQQLPGTAPKLLIYGNNNRPSGVPDRFSGSKSGTSASLAITGLQADDEADYYCQSFDSSLSGSVFGGGTKLTVLG
notes: Fully human XenoMouse hybridoma mAb, lambda light chain (V1-13/JL2); also called ATCC PTA-7422
For B1, in experiment [1], the “% Inhibition, mean (n = 2), IGF-II Proliferation Assay, NIH3T3/hIGF-IR cells” value turned out to be 79.2% and the “EC50 (nM), mean (n = 2), IGF-II Proliferation Assay, NIH3T3/hIGF-IR cells” value came out at 22 nM. Also, in experiment [2], the “% Inhibition, mean (n = 3), IGF-I Proliferation Assay, NIH3T3/hIGF-IR cells” value was determined as 72.4% and the “EC50 (nM), mean (n = 3), IGF-I Proliferation Assay, NIH3T3/hIGF-IR cells” value amounted to 38.9 nM. Moreover, binding in experiment [3] was put at a Kd of 0.935 nM. For the same molecule, in experiment [4], binding was characterised by a dissociation constant (Kd) of 0.935 nM, the koff was found to be 0.0043 s⁻¹ and the kon stood at 4.6e+06 M⁻¹ s⁻¹. For the same molecule, in [5], the “EC50 (nM), n = 2, IGF-II pTYR, BxPC3 cells” value is 2.6 nM; the “Max % Inhibition (133.3 nM), n = 2, IGF-II pTYR, BxPC3 cells” value came out at 91.3%; the “Max % Inhibition (333.3 nM), n = 1, IGF-II pTYR, BxPC3 cells” value came out at 100%. Further, in [6], the “EC50 (nM), n = 1, IGF-I pTYR, BxPC3 cells” value was determined as 7.5 nM; the “EC50 (nM), n = 2, IGF-I pTYR, BxPC3 cells” value turned out to be 5.3 nM; the “Max % Inhibition (333.3 nM), n = 1, IGF-I pTYR, BxPC3 cells” value was 95.7%; the “Max % Inhibition (333.3 nM), n = 2, IGF-I pTYR, BxPC3 cells” value came to 95.2%. In addition, the affinity in experiment [7], expressed as Kd, was 0.452 nM. This molecule registered a Kd in experiment [8] of 0.0474 nM. In the experiment with mouse IGF-I, the “Mouse IGF-I EC50 (nM), n = 1, phosphorylation of hIGF-IR in NIH3T3 cells” value amounted to 6.7 nM and the “Mouse IGF-I EC50 (nM), n = 2, phosphorylation of hIGF-IR in NIH3T3 cells” value amounted to 10.6 nM. In the experiment with mouse IGF-II, the “Mouse IGF-II EC50 (nM), n = 1, phosphorylation of hIGF-IR in NIH3T3 cells” value turned out to be 5.4 nM and the “Mouse IGF-II EC50 (nM), n = 2, phosphorylation of hIGF-IR in NIH3T3 cells” value amounted to 8.7 nM. Moreover, in experiment [9], the “EC50 (nM), n = 1, IGF-II Proliferation, BxPC3 cells” value came to 0.5 nM; the “EC50 (nM), n = 2, IGF-II Proliferation, BxPC3 cells” value is 4.4 nM; the “Max % Inhibition (133.3 nM), n = 2, IGF-II Proliferation, BxPC3 cells” value worked out at 105%; the “Max % Inhibition (333.3 nM), n = 1, IGF-II Proliferation, BxPC3 cells” value was found to be 128%. In experiment [10], this molecule returned a Kd of 0.123 nM, a koff of 0.00043 s⁻¹ and a kon of 3.5e+06 M⁻¹ s⁻¹. The molecule also gave a Kd in experiment [11] of 0.123 nM. Also, in [12], the “% MAX Activation, mean (n = 2), IGF-II pTYR of hIGF-IR in NIH3T3 cells” value stood at 15.9% and the “EC50 (nM), mean (n = 2), IGF-II pTYR of hIGF-IR in NIH3T3 cells” value came to 3 nM. Also, in [13], the “% MAX Activation, mean (n = 2), IGF-I pTYR of hIGF-IR in NIH3T3 cells” value amounted to 16.9% and the “EC50 (nM), mean (n = 2), IGF-I pTYR of hIGF-IR in NIH3T3 cells” value was found to be 14.5 nM.

B2: mAb 7.34.1 (ATCC Accession Number PTA-7423) (antibody, V domains shown)
VH: QVQLQESGPGLVKPSETLSLTCTVSGGSISSYYWSWIRQPPGRGLEWIGYFFYSGYTNYNPSLKSRVTMSVDTSKNQFSLKLSSVTAADTAVYYCACITGTTKGGMDVWGQGATVTVSS
VL: QSVLTQAPSVSGAPGQRVTISCTGRSSNIGAGYDVHWYQQFPGTAPKLLIYGNSNRPSGVPDRFSGSKSGTSASLAITGLQAEDEADYYCQSYDSSLSGSVFGGGTKLTVLG
notes: Fully human, lambda light chain (V1-13/JL2)
Turning to B2, the Kd with IGF-I/IGFBP-3 complex was > 1000 nM. The equilibrium dissociation constant (Kd) in the experiment with IGF-II/IGFBP-3 complex is > 1000 nM. Besides, in experiment [14], the “LA OD, IGF1 2 ng/ml” value amounted to 0.21 OD 450 nm and the “LA OD, IGF1 4 ng/ml” value was 0.44 OD 450 nm. For the same molecule, in experiment [15], the “LA OD, IGF2 2 ng/ml” value is 1.07 OD 450 nm and the “LA OD, IGF2 4 ng/ml” value was determined as 1.84 OD 450 nm. Besides, the binding result in the experiment with human insulin is on record as “no binding (tested: 502 nM)”.

B3: mAb 7.251.3 (ATCC Accession Number PTA-7422) (antibody, V domains shown)
VH: QVQLQESGPGLVKPSETLSLTCTVSGGSISSYYWSWIRQPPGKGLEWIGYFFYSGYTNYNPSLKSRVTISVDTSKNQFSLKLSSVTAADTAVYYCACITGTTKGGMDVWGQGTTVTVSS
VL: QSVLTQPPSVSGAPGQRVTISCTGSSSNIGAGYDVHWYQQLPGTAPKLLIYGNNNRPSGVPDRFSGSKSGTSASLAITGLQADDEADYYCQSFDSSLSGSVFGGGTKLTVLG
notes: as for B2
Take B3: the Kd with IGF-I/IGFBP-3 complex was > 1000 nM. Also, in the experiment with IGF-II/IGFBP-3 complex, the Kd was > 1000 nM. Also, in experiment [14], the “LA OD, IGF1 2 ng/ml” value came to 1.09 OD 450 nm and the “LA OD, IGF1 4 ng/ml” value came out at 1.31 OD 450 nm. Besides, in experiment [15], the “LA OD, IGF2 2 ng/ml” value is 1.02 OD 450 nm and the “LA OD, IGF2 4 ng/ml” value was determined as 1.53 OD 450 nm. For the same molecule, the binding result with human insulin was “no binding (tested: 502 nM)”.

B4: mAb 7.159.2 (ATCC Accession Number PTA-7424) (antibody, V domains shown)
VH: QVQLVQSGAEVKKPGASVKVSCKASGYTFTSYDINWVRQATGQGLEWMGWMNPNSGNTGYAQKFQGRVTMTRNTSISTAYMELSSLRSEDTAVYYCARDPYYYYYGMDVWGQGTTVTVSS
VL: QSVLTQPPSVSAAPGQKVTISCSGSSSNIENNHVSWYQQLPGTAPKLLIYDNNKRPSGIPDRFSGSKSGTSATLGITGLQTGDEADYYCETWDTSLSAGRVFGGGTKLTVLG
notes: Fully human, lambda light chain (V1-19/JL2); also called 7.159.1; 7_159_1
In the case of B4, the Kd with IGF-I/IGFBP-3 complex was > 1000 nM. For the same molecule, the Kd in the experiment with IGF-II/IGFBP-3 complex was > 1000 nM. Also, in experiment [14], the “LA OD, IGF1 2 ng/ml” value was 0.56 OD 450 nm and the “LA OD, IGF1 4 ng/ml” value was found to be 0.98 OD 450 nm. For the same molecule, in experiment [15], the “LA OD, IGF2 2 ng/ml” value came to 1.65 OD 450 nm and the “LA OD, IGF2 4 ng/ml” value stood at 2.47 OD 450 nm. The binding result in the experiment with human insulin is “no binding (tested: 502 nM)”.
